Reference: publication PMC4176361

Legend:
[1] = biological target: His-tagged RctB fragment C157 (Vibrio cholerae); assay: SEC; Superdex 200 10/300 GL in RctB buffer; molar mass from peak position against protein standards
[2] = biological target: His-tagged RctB fragment C157 (Vibrio cholerae); assay: AUC; sedimentation velocity, 50 000 rpm, 20°C; 0.3M NaCl, 0.025M Tris-HCl (pH 8.0), 0.0005M EDTA, 5% (v/v) glycerol; C137, C157 and C208 loaded at 3.6, 15 and 5.8 μM
[3] = biological target: His-tagged RctB fragment C208 (Vibrio cholerae); assay: SEC; Superdex 200 10/300 GL in RctB buffer; molar mass from peak position against protein standards
[4] = biological target: His-tagged RctB fragment C208 (Vibrio cholerae); assay: AUC; sedimentation velocity, 50 000 rpm, 20°C; 0.3M NaCl, 0.025M Tris-HCl (pH 8.0), 0.0005M EDTA, 5% (v/v) glycerol; C137, C157 and C208 loaded at 3.6, 15 and 5.8 μM

Substance | stoichiometry N [1] | stoichiometry N [2] | stoichiometry N [3] | stoichiometry N [4]
His-tagged RctB fragment C157 (domain or fragment) | 2 | 2 |  | 
His-tagged RctB fragment C208 (domain or fragment) |  |  | 2 | 2
